Assay results from patent US20240261333A1, “NOVEL TARGETS FOR ENHANCING ANTI-TUMOR IMMUNITY” (THE BROAD INSTITUTE, INC., priority 2021, published 2024).

Columns and labels:
SERBP1 (human) = target: T1, SERBP1 (human) (UniProt Q8NC51); assay: co-IP, anti-FLAG, lysate of cells with C-FLAG B3GNT2; mass spectrometry
T1 sequence (looked up): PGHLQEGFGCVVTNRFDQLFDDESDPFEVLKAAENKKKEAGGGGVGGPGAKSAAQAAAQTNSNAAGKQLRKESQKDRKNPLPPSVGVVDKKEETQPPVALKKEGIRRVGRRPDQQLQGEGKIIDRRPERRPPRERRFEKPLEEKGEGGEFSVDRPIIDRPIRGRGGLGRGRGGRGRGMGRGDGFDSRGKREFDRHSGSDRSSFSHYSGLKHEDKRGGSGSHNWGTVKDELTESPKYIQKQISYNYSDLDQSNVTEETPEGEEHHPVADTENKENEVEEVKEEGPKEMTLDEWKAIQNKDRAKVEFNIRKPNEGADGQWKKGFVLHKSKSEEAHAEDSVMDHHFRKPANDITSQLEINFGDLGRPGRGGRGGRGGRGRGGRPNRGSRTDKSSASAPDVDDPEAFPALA

KRT4 (human) = KRT4 (human) (UniProt P19013); assay: as above
MOV10 (human) = target: T2, MOV10 (human) (UniProt Q9HCE1); assay: as above
T2 sequence (looked up): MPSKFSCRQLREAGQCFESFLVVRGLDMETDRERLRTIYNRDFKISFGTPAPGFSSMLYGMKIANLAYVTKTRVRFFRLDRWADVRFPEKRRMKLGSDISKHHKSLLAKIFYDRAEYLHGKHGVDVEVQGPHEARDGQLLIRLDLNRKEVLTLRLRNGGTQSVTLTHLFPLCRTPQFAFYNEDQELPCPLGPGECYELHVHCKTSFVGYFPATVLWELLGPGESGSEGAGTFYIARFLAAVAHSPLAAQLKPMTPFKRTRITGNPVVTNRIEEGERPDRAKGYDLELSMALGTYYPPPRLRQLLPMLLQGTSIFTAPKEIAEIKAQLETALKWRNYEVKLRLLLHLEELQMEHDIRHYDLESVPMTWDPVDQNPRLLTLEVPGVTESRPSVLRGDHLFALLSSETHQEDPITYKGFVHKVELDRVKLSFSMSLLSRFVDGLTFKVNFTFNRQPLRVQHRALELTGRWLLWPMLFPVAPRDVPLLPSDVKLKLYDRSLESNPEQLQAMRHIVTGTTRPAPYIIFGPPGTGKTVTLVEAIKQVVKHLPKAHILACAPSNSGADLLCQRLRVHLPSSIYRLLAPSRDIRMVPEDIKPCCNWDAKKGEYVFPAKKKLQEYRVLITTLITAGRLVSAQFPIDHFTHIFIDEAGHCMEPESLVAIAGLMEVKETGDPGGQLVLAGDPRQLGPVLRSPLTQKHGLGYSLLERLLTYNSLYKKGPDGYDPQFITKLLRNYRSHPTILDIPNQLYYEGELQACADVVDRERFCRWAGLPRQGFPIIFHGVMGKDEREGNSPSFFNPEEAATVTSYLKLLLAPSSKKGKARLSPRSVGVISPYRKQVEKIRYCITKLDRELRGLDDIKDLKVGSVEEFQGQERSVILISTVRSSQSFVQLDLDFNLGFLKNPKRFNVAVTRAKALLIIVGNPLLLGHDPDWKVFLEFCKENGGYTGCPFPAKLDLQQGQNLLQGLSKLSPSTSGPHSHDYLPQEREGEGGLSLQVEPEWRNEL

RPL13 (human) = RPL13 (human) (UniProt P26373); assay: as above
PARP1 (human) = PARP1 (human) (UniProt P09874); assay: as above
SPTAN1 (human) = SPTAN1 (human) (UniProt Q13813); assay: as above
RPL4 (human) = RPL4 (human) (UniProt P36578); assay: as above
PUM1 (human) = PUM1 (human) (UniProt Q14671); assay: as above
CSE1L (human) = CSE1L (human) (UniProt P55060); assay: as above
ARPC4 (human) = ARPC4 (human) (UniProt P59998); assay: as above
RPL18 (human) = RPL18 (human) (UniProt Q07020); assay: as above
RPL10 (human) = RPL10 (human) (UniProt P27635); assay: as above
HSPA8 (human) = HSPA8 (human) (UniProt P11142); assay: as above
DNAJC3 (human) = DNAJC3 (human) (UniProt Q13217); assay: as above
LSM12 (human) = LSM12 (human) (UniProt Q3MHD2); assay: as above
TRIM21 = TRIM21 (UniProt P19474); assay: co-IP with mouse IgG control, mass spectrometry; lysate of C-FLAG B3GNT2 cells
PCMT1 = PCMT1 (UniProt P22061); assay: as above
SERPINB12 = SERPINB12 (UniProt Q96P63); assay: as above
RPL10A = RPL10A (UniProt P62906); assay: as above
FABP5 = FABP5 (UniProt Q01469); assay: as above
S100A9 = S100A9 (UniProt P06702); assay: as above
HNRNPA1 = HNRNPA1 (UniProt P09651); assay: as above
Sequence of HNRNPA1 (P09651 2-372 limits assumed): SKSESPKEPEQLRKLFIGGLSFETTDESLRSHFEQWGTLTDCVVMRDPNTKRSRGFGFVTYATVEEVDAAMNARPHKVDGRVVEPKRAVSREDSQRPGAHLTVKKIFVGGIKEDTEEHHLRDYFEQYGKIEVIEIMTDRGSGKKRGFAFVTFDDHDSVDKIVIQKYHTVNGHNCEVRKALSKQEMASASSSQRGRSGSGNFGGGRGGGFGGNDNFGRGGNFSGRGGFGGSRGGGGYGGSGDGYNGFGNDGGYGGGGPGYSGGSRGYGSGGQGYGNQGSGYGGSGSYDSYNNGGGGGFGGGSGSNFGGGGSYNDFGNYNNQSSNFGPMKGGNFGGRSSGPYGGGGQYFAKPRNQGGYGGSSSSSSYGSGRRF

Sequence of SERPINB12 (Q96P63 other isoform, or with tags, fused parts or gaps limits assumed): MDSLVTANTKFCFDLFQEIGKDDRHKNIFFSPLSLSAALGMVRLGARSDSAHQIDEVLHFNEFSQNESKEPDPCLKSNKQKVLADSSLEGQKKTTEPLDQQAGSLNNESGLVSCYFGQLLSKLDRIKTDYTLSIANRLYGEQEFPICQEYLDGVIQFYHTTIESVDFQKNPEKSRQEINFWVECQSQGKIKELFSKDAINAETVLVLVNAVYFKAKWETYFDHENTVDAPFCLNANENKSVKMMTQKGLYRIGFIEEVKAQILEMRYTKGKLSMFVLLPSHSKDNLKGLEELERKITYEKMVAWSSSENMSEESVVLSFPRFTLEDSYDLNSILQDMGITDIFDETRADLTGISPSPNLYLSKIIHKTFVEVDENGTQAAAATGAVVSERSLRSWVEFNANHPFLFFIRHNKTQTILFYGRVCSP
Sequence of HSPA8 (human) (P11142 2-646 limits assumed): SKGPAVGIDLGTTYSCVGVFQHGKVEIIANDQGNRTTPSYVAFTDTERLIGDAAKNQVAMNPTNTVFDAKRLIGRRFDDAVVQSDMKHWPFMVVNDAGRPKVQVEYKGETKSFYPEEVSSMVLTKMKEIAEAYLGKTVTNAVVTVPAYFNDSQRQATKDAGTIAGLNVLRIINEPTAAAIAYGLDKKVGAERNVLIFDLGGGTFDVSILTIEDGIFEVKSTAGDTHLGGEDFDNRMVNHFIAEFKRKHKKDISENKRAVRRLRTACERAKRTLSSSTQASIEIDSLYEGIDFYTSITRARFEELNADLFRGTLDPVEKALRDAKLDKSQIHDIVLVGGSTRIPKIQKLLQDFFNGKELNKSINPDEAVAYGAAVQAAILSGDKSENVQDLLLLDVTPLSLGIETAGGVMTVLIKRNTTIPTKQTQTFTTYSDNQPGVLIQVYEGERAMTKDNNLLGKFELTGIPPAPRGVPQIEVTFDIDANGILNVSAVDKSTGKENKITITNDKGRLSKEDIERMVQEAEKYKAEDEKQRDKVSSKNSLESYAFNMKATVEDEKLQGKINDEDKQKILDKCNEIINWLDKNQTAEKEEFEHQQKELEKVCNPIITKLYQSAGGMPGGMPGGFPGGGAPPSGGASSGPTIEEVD
Sequence of TRIM21 (P19474 whole entry): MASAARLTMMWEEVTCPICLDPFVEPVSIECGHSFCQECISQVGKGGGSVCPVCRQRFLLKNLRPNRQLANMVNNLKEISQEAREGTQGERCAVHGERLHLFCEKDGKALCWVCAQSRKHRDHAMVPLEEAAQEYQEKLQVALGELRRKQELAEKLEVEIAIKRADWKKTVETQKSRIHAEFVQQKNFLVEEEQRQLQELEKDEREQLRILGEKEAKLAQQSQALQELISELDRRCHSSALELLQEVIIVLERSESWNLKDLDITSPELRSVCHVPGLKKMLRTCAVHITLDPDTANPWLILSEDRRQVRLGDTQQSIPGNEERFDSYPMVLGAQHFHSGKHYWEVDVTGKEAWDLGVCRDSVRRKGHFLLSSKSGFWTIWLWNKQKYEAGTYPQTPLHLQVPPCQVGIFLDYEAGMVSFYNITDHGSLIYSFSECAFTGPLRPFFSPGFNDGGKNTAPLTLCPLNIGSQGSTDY
Sequence of S100A9 (P06702 whole entry): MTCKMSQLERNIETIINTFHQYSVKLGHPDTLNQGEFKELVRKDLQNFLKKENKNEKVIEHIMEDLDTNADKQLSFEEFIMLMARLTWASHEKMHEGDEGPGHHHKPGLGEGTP
Sequence of PARP1 (human) (P09874 2-1014 limits assumed): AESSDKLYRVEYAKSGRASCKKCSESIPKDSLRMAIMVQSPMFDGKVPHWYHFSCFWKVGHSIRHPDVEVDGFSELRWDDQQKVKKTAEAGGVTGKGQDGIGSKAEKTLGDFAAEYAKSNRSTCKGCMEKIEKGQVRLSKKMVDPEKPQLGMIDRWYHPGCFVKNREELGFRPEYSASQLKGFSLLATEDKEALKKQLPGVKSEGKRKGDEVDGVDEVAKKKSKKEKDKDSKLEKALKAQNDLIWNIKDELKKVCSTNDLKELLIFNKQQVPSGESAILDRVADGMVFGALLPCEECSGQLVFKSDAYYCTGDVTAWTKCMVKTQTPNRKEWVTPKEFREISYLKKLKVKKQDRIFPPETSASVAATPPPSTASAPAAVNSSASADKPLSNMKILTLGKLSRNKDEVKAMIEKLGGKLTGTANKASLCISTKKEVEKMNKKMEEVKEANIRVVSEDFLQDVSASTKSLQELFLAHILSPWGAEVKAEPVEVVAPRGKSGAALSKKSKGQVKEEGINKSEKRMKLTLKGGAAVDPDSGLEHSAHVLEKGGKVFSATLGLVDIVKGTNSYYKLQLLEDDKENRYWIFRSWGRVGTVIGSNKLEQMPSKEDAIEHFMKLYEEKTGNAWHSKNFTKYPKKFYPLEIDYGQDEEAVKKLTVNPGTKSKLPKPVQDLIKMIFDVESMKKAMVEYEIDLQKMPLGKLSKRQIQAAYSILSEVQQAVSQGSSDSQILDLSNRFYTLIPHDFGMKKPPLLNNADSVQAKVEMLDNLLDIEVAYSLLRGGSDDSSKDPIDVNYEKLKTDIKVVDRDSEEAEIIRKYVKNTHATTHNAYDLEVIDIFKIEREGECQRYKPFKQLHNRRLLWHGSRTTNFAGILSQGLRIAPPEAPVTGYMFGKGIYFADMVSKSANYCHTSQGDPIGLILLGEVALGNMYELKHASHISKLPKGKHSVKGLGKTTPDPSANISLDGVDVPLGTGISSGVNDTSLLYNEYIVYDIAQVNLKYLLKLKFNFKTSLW
Sequence of PCMT1 (P22061 2-227 limits assumed): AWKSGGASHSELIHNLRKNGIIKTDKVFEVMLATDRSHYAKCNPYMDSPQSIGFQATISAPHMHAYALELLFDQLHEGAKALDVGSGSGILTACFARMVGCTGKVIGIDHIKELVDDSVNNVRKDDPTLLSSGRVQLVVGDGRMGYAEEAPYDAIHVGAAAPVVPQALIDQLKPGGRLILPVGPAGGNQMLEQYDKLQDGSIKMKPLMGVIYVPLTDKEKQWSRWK
Sequence of LSM12 (human) (Q3MHD2 2-195 limits assumed): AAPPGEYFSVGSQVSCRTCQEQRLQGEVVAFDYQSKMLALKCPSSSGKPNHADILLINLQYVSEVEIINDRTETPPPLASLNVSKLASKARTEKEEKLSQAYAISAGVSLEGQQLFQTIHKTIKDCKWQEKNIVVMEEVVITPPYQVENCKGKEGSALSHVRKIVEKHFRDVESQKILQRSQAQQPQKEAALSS
Sequence of PUM1 (human) (Q14671 other isoform, or with tags, fused parts or gaps limits assumed): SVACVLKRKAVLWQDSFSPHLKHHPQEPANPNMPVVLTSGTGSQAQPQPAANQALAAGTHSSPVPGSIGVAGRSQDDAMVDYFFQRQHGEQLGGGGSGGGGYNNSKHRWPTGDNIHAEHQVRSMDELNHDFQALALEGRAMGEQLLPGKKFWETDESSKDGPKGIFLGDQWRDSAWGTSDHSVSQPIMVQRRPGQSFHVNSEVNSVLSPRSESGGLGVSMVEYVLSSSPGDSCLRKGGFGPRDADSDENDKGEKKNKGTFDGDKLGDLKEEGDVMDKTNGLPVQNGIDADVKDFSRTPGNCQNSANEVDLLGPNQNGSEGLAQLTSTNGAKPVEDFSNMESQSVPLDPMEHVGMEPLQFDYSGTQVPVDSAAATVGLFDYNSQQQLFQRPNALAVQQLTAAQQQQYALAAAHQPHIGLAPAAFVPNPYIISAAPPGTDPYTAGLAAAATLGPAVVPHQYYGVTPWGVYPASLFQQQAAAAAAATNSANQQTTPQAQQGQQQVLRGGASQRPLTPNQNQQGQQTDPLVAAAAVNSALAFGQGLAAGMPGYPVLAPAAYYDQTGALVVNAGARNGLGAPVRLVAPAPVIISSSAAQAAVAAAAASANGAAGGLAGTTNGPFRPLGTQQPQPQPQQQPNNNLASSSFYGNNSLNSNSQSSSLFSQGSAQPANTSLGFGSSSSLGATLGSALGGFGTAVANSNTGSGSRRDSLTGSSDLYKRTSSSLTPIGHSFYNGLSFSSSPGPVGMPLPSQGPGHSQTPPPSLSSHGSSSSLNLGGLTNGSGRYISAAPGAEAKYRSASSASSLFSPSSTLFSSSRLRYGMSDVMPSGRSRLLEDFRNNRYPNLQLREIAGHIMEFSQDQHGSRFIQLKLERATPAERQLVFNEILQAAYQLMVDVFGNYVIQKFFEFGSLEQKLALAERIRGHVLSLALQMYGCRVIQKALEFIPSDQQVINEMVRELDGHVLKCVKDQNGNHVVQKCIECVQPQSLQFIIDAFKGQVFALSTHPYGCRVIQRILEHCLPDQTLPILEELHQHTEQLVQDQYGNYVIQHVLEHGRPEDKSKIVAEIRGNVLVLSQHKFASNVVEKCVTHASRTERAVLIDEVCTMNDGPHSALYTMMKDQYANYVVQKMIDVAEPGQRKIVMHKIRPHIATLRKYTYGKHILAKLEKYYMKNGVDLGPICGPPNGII
Sequence of FABP5 (Q01469 2-135 limits assumed): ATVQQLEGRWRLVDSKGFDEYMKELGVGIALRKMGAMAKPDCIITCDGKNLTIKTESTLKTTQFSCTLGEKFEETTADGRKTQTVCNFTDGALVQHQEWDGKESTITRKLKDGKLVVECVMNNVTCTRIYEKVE

“C-terminal FLAG tagged B3GNT2 (from UniProt Q9NY97 1-397) (enzyme)” showed a co-IP mass spectrometry count (SERBP1 (human)) of 10, a co-IP mass spectrometry count (KRT4 (human)) of 37 and a co-IP mass spectrometry count (MOV10 (human)) of 3. It also gave a co-IP mass spectrometry count (RPL13 (human)) of 23, a co-IP mass spectrometry count (PARP1 (human)) of 3 and a co-IP mass spectrometry count (SPTAN1 (human)) of 3. For the same substance, the co-IP mass spectrometry count (RPL4 (human)) was 36, the co-IP mass spectrometry count (PUM1 (human)) was 3 and the co-IP mass spectrometry count (CSE1L (human)) was 3. It also gave a co-IP mass spectrometry count (ARPC4 (human)) of 3, a co-IP mass spectrometry count (RPL18 (human)) of 24 and a co-IP mass spectrometry count (RPL10 (human)) of 15. It also gave a co-IP mass spectrometry count (HSPA8 (human)) of 49, a co-IP mass spectrometry count (DNAJC3 (human)) of 3 and a co-IP mass spectrometry count (LSM12 (human)) of 4.

In the case of “IgG control (Millipore Sigma 12-371) (antibody)”, the co-IP mass spectrometry count (TRIM21) is reported as 0, the co-IP mass spectrometry count (PCMT1) is reported as 0 and the co-IP mass spectrometry count (SERPINB12) is reported as 0. For the same substance, the co-IP mass spectrometry count (RPL10A) was 0, the co-IP mass spectrometry count (FABP5) was 0 and the co-IP mass spectrometry count (S100A9) was 5. For the same substance, the co-IP mass spectrometry count (HNRNPA1) was 4.
